The text below walks through data of the supplement of paper PMC12042874.

± gives the uncertainty stated by the source.

The data set is described as follows: amyloid nucleation score (Sup35N fusion, yeast selection) (log enrichment); library NNK2; higher = more nucleation; inactive = no reads after selection. The method, boiled down:
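Peptides of 20 random codons, each fused to Sup35N, were expressed in psi-negative yeast. Cells were induced with 100 μM copper sulfate for 24 hours and grown 7 days at 30°C on medium lacking adenine and uracil, and plasmid inserts before and after selection were Illumina-sequenced. Nucleation scores are DiMSum log enrichments of output over input reads, centred on the mode score of non-aggregating sequences, and sequences under 100 input reads were excluded.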

The substance FDLVGDGYCNYALEYTRLNM yielded an amyloid nucleation score of -1.15 ± 1.1.

With HVSNSFKSFCN, the amyloid nucleation score worked out at 1.52 ± 0.2.

As to LFLTACER, the amyloid nucleation score was found to be 6.721 ± 0.043.

DGSERIPCLSNYHMLRLTNS gave an amyloid nucleation score of -0.001 ± 0.32.

SRIFVLYYSWDAWNSWGDVV came in with an amyloid nucleation score of 0.602 ± 0.6.

Turning to GFWFLGCPLYYLVAIFKWII, the amyloid nucleation score entry is “inactive”.

The substance LNSQSVFKC returned an amyloid nucleation score of -0.967 ± 0.55.

Consider GVDKKVSSTECIETVSCFIT, for which the amyloid nucleation score entry is “inactive”.

In turn, HVYPVWFCWLYSFRLHYSQV yielded an amyloid nucleation score of -0.149 ± 0.56.

Substance VKSTYAYPPNVVDPHIGWGH gave an amyloid nucleation score of 0.99 ± 0.24.

As for PRLRAAG, the amyloid nucleation score was determined as 0.758 ± 0.26.

On to LMAFCKLQDRNKTPLSSALF, for which the amyloid nucleation score entry is “inactive”.

For GHYKFSIVFPVACLIDRFSF, the amyloid nucleation score turned out to be 5.13 ± 0.089.

The substance TMCWPMILK registered an amyloid nucleation score of -0.072 ± 0.27.

Turning to LGSLNNPA, the amyloid nucleation score is 7.941 ± 0.077.

In turn, HRYSRCIHLVKWVWCVQMIA displayed an amyloid nucleation score of 1.29 ± 0.32.

With LLNGPVYFFNLWVHGAC, the amyloid nucleation score came to 8.126 ± 0.052.

In turn, TLENQVGSMSIGGFSGGYRR showed an amyloid nucleation score of 0.201 ± 1.

Substance SKCWESREQGYMYMEWGFEG gave an amyloid nucleation score of 0.219 ± 1.

Turning to LCDMI, the amyloid nucleation score is 0.544 ± 0.29.

Substance PRNRQRSNSTDCGHLITYWD registered an amyloid nucleation score of 0.205 ± 0.62.

Substance NSLLVFQNNFGIETNGVNII showed an amyloid nucleation score of 0.94 ± 0.74.

In turn, VKPVSVFL yielded an amyloid nucleation score of -0.11 ± 0.63.

For HDQGSTMFCGRNAATLSQCW, the amyloid nucleation score came out at 1.54 ± 0.25.

Take IRGSKSFHLCEAK: the amyloid nucleation score stood at 0.213 ± 0.33.

For the substance LINLVWTDEITMSDYMKRSG, the amyloid nucleation score amounted to 0.858 ± 0.17.

Turning to DMAKGVLRSLFGTA, the amyloid nucleation score was -0.154 ± 0.36.

Substance LFAKDGLRSRLKEC gave an amyloid nucleation score of -0.033 ± 0.27.

Turning to SWLIDLTRHSFLI, the amyloid nucleation score is -1.25 ± 0.78.

As to VHLTAVWCLDRRRVRKIFIV, the amyloid nucleation score is -0.802 ± 0.76.

In turn, SSGTCTSHSLVLIHMGLRYV gave an amyloid nucleation score of -0.54 ± 0.54.

Substance VYLGSGFAARRSSGEQRRIS yielded an amyloid nucleation score of 0.536 ± 0.66.

For SRMAWYFLLGYHLMMEKVHL, the amyloid nucleation score result is “inactive”.

Substance LTSSRRF came in with an amyloid nucleation score of 5.724 ± 0.037.

VLASWSDFKSRGRGNSSVSG gave an amyloid nucleation score of 1.24 ± 0.33.

LFFSCHRVDCHSALNMFIVS gave an amyloid nucleation score of 5.53 ± 0.065.

KSHLVF came in with an amyloid nucleation score of -0.312 ± 0.65.

The substance TMFGPH came in with an amyloid nucleation score of 0.775 ± 0.74.

Consider NLDEQGFAVSWETVLLWSEE, for which the amyloid nucleation score is -0.005 ± 0.5.

On to LGLAVKSRTPDLTGGPRASE, for which the amyloid nucleation score was found to be 1.68 ± 0.18.

Substance VGRNYLWYRTMPDIYCQVCG registered an amyloid nucleation score of 1.62 ± 0.077.

MLSDSLLDCRVLLMVFGRET came in with an amyloid nucleation score of 3.81 ± 0.051.

KINVSRFN came in with an amyloid nucleation score of -0.146 ± 0.33.

HVFMSTIKICRDQLNHQLRE gave an amyloid nucleation score of 7.729 ± 0.037.

Regarding GNESDVSTIYKGDIPLLGVL, the amyloid nucleation score was -1.05 ± 0.55.

In the case of LQAVPIIANCSSTRTANISL, the amyloid nucleation score entry was “inactive”.

Substance RPLLKRKESM gave an amyloid nucleation score of 0.573 ± 0.28.

The substance MSCTRDSLCLNFLVILFTTQ came in with an amyloid nucleation score of 3.03 ± 0.065.

On to YFRVFFFLMSIYTDKN, for which the amyloid nucleation score entry was “inactive”.

For the substance KASMCGMKVWKFFQYLIKMV, the amyloid nucleation score is -1.1 ± 0.61.

For the substance LVREWHRKNSSGPRIVVRRQ, the amyloid nucleation score was 4.18 ± 0.079.

With DANDSSWEGG, the amyloid nucleation score was 0.669 ± 0.74.

Take SSFSIMLCGGVIFCIVAN: the amyloid nucleation score stood at 5.02 ± 0.078.

The substance KRVFMWRSG came in with an amyloid nucleation score of -0.424 ± 1.1.

As to STTLIEFSLYIRYYTND, the amyloid nucleation score was 4.64 ± 0.084.

As for WIDLNRRRREAL, the amyloid nucleation score was -0.125 ± 0.34.

Regarding YGWRSRYVPCPAGRRCVMSQ, the amyloid nucleation score stood at 0.53 ± 0.2.

Substance IDILTVICVPEIYNWFLMQY yielded an amyloid nucleation score of -0.842 ± 0.35.

As to KLKSDLMNRTVGDLPVRARP, the amyloid nucleation score came out at 5.105 ± 0.048.

Substance SQHSRHRRQSVVYYAVDGVE came in with an amyloid nucleation score of 1.21 ± 0.31.

Turning to SSLWVWYLIVD, the amyloid nucleation score came to 0.145 ± 0.21.

IMVRLLDAYHTMRAKDSMGN registered an amyloid nucleation score of 0.06 ± 0.62.

With FSFSEHRL, the amyloid nucleation score amounted to 0.045 ± 0.79.

On to GITCCSMSRRFCFRGEGTEW, for which the amyloid nucleation score was determined as 3.81 ± 0.074.

Substance IRMLLYCMESELKGASVEAG returned an amyloid nucleation score of -0.037 ± 0.5.

GRILNFMSHDWGDHMICGKK registered an amyloid nucleation score of 0.65 ± 0.66.

In turn, LMIGSEDAMNYGCSCNPYLF displayed an amyloid nucleation score of -1.04 ± 0.33.

The substance SLADS registered an amyloid nucleation score of -0.802 ± 0.63.

As to YTRKVSAG, the amyloid nucleation score is -0.063 ± 0.36.

Consider YLIISMRFISSTQYRFFSVH, for which the amyloid nucleation score turned out to be 0.498 ± 0.19.

In turn, SLWVYLVKMVEIFSLKD came in with an amyloid nucleation score of -0.531 ± 0.55.

VEMLFLSFMRPVLLGTMVAV had an amyloid nucleation score of 0.007 ± 1.1.

As for RTSSL, the amyloid nucleation score is -0.336 ± 0.49.

Take FCALWVQFRYRE: the amyloid nucleation score was found to be 3.89 ± 0.1.

As for LFTGRNRTSTHSSDISSRN, the amyloid nucleation score is 0.531 ± 0.66.

The substance SLTMYGSIEWLNNVSAILRH registered an amyloid nucleation score of 0.541 ± 0.66.

Substance PVALLAIRMNIDVVN had an amyloid nucleation score of -0.353 ± 0.49.

Substance NYIWFVNPYRRFSHVNHITN displayed an amyloid nucleation score of -0.176 ± 1.1.

As to VQGLHCWIG, the amyloid nucleation score result is “inactive”.

For CLLIGLAMGMVCSLPLGRIL, the amyloid nucleation score was 0.123 ± 1.

As for VVSFNWLEYVSNMSQMNWDG, the amyloid nucleation score was -0.015 ± 0.63.

Substance NARCMCWSGINLVTWYLLKE showed an amyloid nucleation score of 7.145 ± 0.04.

Take FDQVWRCVASLRPIVLSCSS: the amyloid nucleation score stood at 0.322 ± 0.54.

In turn, FDVLMRSTGRANKKFLVCRQ had an amyloid nucleation score of -0.033 ± 0.38.

DRTKNFLCMMKRGFLSKIPW gave an amyloid nucleation score of 0.227 ± 0.56.

FSGSIVIAGGIVSMRDPGLR showed an amyloid nucleation score of -0.596 ± 0.79.

In turn, VVAGEYGWTWFFKESLGLGM gave an amyloid nucleation score of -0.332 ± 0.49.

For AWGGSRNRMYFYHSPVRFFE, the amyloid nucleation score is 4.5 ± 0.088.

The substance DSYMKRLWCRAARDRTESVW gave an amyloid nucleation score of 0.159 ± 0.46.

The substance NTATSN came in with an amyloid nucleation score of -0.22 ± 1.1.

Substance RLDMYGLLINWSSVCLYNNI yielded an amyloid nucleation score of 0.257 ± 0.21.

Substance KTTLVHFFVAREYLWRRMWG gave an amyloid nucleation score of 4.38 ± 0.084.

As to ERILSFFF, the amyloid nucleation score entry was “inactive”.

For LVVVPTTGRVADRQWVMRNG, the amyloid nucleation score was found to be 0.86 ± 0.2.

In turn, SNYSPGFLCWALESSTNM displayed an amyloid nucleation score of -0.99 ± 1.1.

As to WFISGISKLMRHFALKYASM, the amyloid nucleation score was 2.5 ± 0.15.

Regarding YRRYVLTL, the amyloid nucleation score worked out at 0.057 ± 0.76.

NALHEIQLDICMRSIEARGY: the amyloid nucleation score was -1.19 ± 0.39.

As to LMGIEVDGYYGCRCLTP, the amyloid nucleation score was 0.236 ± 1.1.

For the substance YGFLCRL, the amyloid nucleation score result was “inactive”.

Substance DCVNGVLFDGSPHVYGFLEW had an amyloid nucleation score of 0.419 ± 0.32.

FSHYLSRRGRPYHANCKEAL had an amyloid nucleation score of -0.922 ± 0.39.

IFRDNVYFIE displayed an amyloid nucleation score of -0.692 ± 1.

In turn, SCSVCWSLSMV showed an amyloid nucleation score of 1.31 ± 0.36.

TFGLHIHKPRMPPHGPWFSL had an amyloid nucleation score of -0.172 ± 0.34.

Consider RSGESRWTYYLVEIYFDGSF, for which the amyloid nucleation score was -0.913 ± 0.78.

As for GFPRKSTDDLNILLNL, the amyloid nucleation score is -1.47 ± 0.78.

For LCRKRYVRSHTTSWQTGGAF, the amyloid nucleation score was 0.888 ± 0.48.

For the substance MVSLLNFRECMHY, the amyloid nucleation score result is “inactive”.

Consider CMLASSFMVVRSRLLSSRAM, for which the amyloid nucleation score worked out at 1.14 ± 0.32.

DLYIS had an amyloid nucleation score of 0.13 ± 0.8.

Turning to RVNEMWIQI, the amyloid nucleation score is -0.138 ± 0.76.

FFSMRVIIMFERNSSVFAVQ came in with an amyloid nucleation score of 4.1 ± 0.11.

Substance ECIYIMFKACGLRDRFSQVF yielded an amyloid nucleation score of 1.84 ± 0.13.

KGIAVSVVPYSPVNTGDSAV: the amyloid nucleation score was 0.632 ± 0.48.

For RIYLGRQYYRSEGLKQLVNG, the amyloid nucleation score was found to be 0.151 ± 0.63.

Turning to DDLSMRVVRLRNVTLYHYFG, the amyloid nucleation score stood at 3.21 ± 0.088.

GPSDLIFLPGLMAPRS had an amyloid nucleation score of -0.373 ± 1.1.

LLVDTNYSSQMASERFRTCG came in with an amyloid nucleation score of -0.34 ± 0.37.

As for ILDRYLVHGI, the amyloid nucleation score was -0.394 ± 0.78.

FPENDWL displayed an amyloid nucleation score of -0.552 ± 0.44.

Consider VSAWWQDVYSCTHTHAPAAQ, for which the amyloid nucleation score was found to be 5.46 ± 0.098.

In the case of CSNLSV, the amyloid nucleation score was 0.167 ± 0.28.

ALFVYYDIQVVGITY: the amyloid nucleation score is -1.1 ± 0.4.

Consider PDWMRGSSEYWSVGPRYCNS, for which the amyloid nucleation score stood at 0.355 ± 0.13.

On to TSYTLDYCGISMLKYFNSVD, for which the amyloid nucleation score turned out to be 7.188 ± 0.062.

Consider MVHPDVNHSYGSVWKPWSDK, for which the amyloid nucleation score was 0.132 ± 0.44.

For the substance ILISIISFTKSCNISISLEW, the amyloid nucleation score is -0.603 ± 1.1.

LTSNTNSRMLRCSIMVQQS registered an amyloid nucleation score of -0.087 ± 0.45.

For the substance TQWSFGGYQRVGGLVVHAKR, the amyloid nucleation score amounted to 3.03 ± 0.17.

In turn, CMTSKVLRLDYRRMMVNIDC gave an amyloid nucleation score of -0.58 ± 0.42.

Consider FKAHIR, for which the amyloid nucleation score result is “inactive”.

The substance MYDCGVLFIDIRVKVGHVLE showed an amyloid nucleation score of 0.167 ± 0.56.

As to NSSRL, the amyloid nucleation score was -0.166 ± 1.1.

Regarding SVSRSYGEVRLEHTVLETCR, the amyloid nucleation score was 0.619 ± 0.64.

In turn, MLVLSTGHPRGFWTRVVCCD yielded an amyloid nucleation score of 0.092 ± 1.1.

Substance SSIVEDGLTLLNGGNRIDGY came in with an amyloid nucleation score of 0.445 ± 0.31.

LTKVWLPCAFVVSSFDQYQH had an amyloid nucleation score of 0.764 ± 0.41.

In turn, LSKLYTLVRNV had an amyloid nucleation score of -0.576 ± 0.63.

For RNAQPLNGPRSPVSGTDWYS, the amyloid nucleation score was found to be 0.092 ± 1.1.
